Measured values reported in the supplement of paper PMC9170038.

System: MS2 coat protein
Test: apparent KD of MS2 coat protein; higher = weaker reporter binding
Details: Eterna round: R107
Method in brief: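 Designed RNA switches were transcribed on-chip from Illumina sequencing clusters. They were then titrated with SNAP-549-labelled MS2 coat protein (twofold steps, 0.7 or 1.5 nM to 3 µM; 0.8–1.5 h to 10–20 min per step) in 100 mM Tris-HCl pH 7.5, 80 mM KCl, 4 mM MgCl2, without or with constant ligand. Apparent KD is the per-design median of normalised cluster binding-curve fits.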

[1] = input ligand: theophylline 20 uM
[2] = input ligand: tryptophan 2.4 mM
[3] = input ligand: theophylline 2 mM

Row | Sequence | apparent KD of MS2 coat protein (input ligand: arginine 13.2 mM) [nM] | apparent KD of MS2 coat protein [1] [nM] | apparent KD of MS2 coat protein [2] [nM] | apparent KD of MS2 coat protein (input ligand: none) [nM] | apparent KD of MS2 coat protein [3] [nM]
1 | GCACCAGGUACGGAUACCAGACUCUGCCGAUUGGGUGAACAUGAGGAUCACCCAUGUUAGGUCCCUUGGCAGCCGUACCUGGUGC [#18 Exclusion-TheophyllineB] | 26.4 | 73.5 | 30.3 | – | –
2 | CGCCACAUGAGGAUCACCCAUGUAAUGGCGCGAGGACCGGUACGGCCGCCACUCGCCUGGCAGUGAGCGCAUGCGGCCUGGGUAU [Exclusion Tryp A GF9] | 12.2 | 13.3 | 13.3 | 10.6 | 14.4
3 | AUGGUAGGACAGCACAUAUAAGCUUGUGAUACCAGCUAGAAAACUAGCCCUUGGCAGCACAUUACAUGAGGAUCACCCAUGUCCC [EThA NP+V+V2 #1] | 44.1 | 68.6 | 50 | – | –
4 | UUCAGCUAGUCGGCCGCCACUACAUGAGGAUCACCCAUGUAGGUCCACACUGCUUCGGCAGUGAGUAGGACCGGGACUAGCUGAG | 7.07 | 15.2 | 15.4 | 9.66 | 10.5
5 | GGCCCACAUGAGGAUCACCCAUGUGUGGAUACCAGCCUCAUUUAGGGCCCUUGGCAGCCAGAUAGUAACAAGUCCGAAACACAGA [theeternabot_sameState_MS2_Theo_A_24] | 26.2 | 203 | 144 | – | –
6 | UCCUCCUCCGCAAGGAGGAGGAGUUGCGAUACCAGCACGGAAACGUGCCCUUGGCAGCGCACAUGAGGAUCACCCAUGUCAUGUU [#1 Exclusion - Theophylline A Attempt #9 (HarryS)] | 18.7 | 23.8 | 16.3 | – | –
7 | GGCACAUAGUCGGCCGCCACUAGAAUAUAGUGGAAUAACAUGAGGAUCACCCAUGUAUUUGGGACUAGGACCGGGACUAUGUGCC [Bear] | 33.2 | 41.9 | 20.2 | 33.7 | 42.2
8 | GCACCAGGUACGGAUACCAGACAUUGCCAAUUGGGUGAACAUGAGGAUCACCCAUGUUAAGUCCCUUGGCAGCCGUACCUGGUGC [ETB NP+V+V2 #6 Same Structure] | 11.4 | 17.7 | 11.5 | 10.6 | 178
9 | UGACAUGAGGAUCACCCAUGUUUAGAUGAACGAGGACCGGUACGGCCGCCACUCGAUAAGUGGAAAGAGCGAGGGAUCGCAUGCU [Same State Trp A GF5] | 12.1 | 17.5 | 14.4 | 12.9 | 12.9
10 | UUUUACAUGAGGAUCACCCAUGUACAUGGGCGAGGACCGGUACGGCCGCCACUCGUGGGACCCACGGGCCCGCUUAGUGGGUACA [LarryB_001] | 58.3 | 168 | 57.4 | 87.5 | 189
11 | ACAUGAGGAUCACCCAUGUGGCGACUUGAUACCAGACCCGCACUAGUCCCUUGGCAGCAACUACGUGUGGGACACCCAUGUGAAG [aszkullin] | 17.5 | 23.9 | 20.2 | – | –
12 | GGUGGGACUUGUGAUACCAGCCCAGUUCUAAUCGAACUGCACAUGAGGAUCACCCAUGUCGGCCCUUGGCAGCAUGAGUAUUUAU [Esceesor] | 146 | 160 | 326 | – | –
13 | UUUGAGAUAACAGAUACCAGCGUGUUAUAAAACAUGAGGAUCACCCAUGUAGUGAUCAAGCGCCCUUGGCAGCUGGUGUUUUAGG [7.H] | 21.1 | 383 | 141 | 102 | 469
14 | CAUGUGAAAAUAAGAAGAAGAAGAAUAAAUCGAGGACCGGUACGGCCGCCACUCGUCGAAUCACAUGAGGAUCACCCAUGUAGCC [Tryptofun] | 26.3 | 52.6 | – | – | 69
15 | UGUAUGGACUGAAGGAGCGGGUUGAUAAUCUGAGGAUCACCCAGGUAAAAGGCGAAAGCCACCCAGGUAGGUCGCAGUCCAUACU | 23.8 | 38.9 | 36.4 | 34 | 41.8
16 | CCUCAUGUGGUGCUGCACAUGAGAGGUGAUACCAGCAUCGAAAGAUGCCCUUGGCAGCACCAACAUGAGGAUCACCCAUGUAAUA [(M)'-(T)'-(M)''-(T1)-(T2)-(M1)-(M2)_Design1] | 27 | 94 | 25 | – | –
17 | AGACUGUAAAGUCUACCGGUCAACAAUAAUCGAGGACCGGUACGGCCGCCACUCGAUGUGAUAUACACAUGAGGAUCACCCAUGU [Tryptophan A 16] | 17.2 | 22.6 | – | – | 19.7
18 | GGUCCCGUCGGAAGGAGCGACAUGAGGAUCACCCAUGUCUCCCGUUAUGGGAGUUCUUUAGGUCAGGUAGGUCGCCGGCGGGAGC [#1 Exclusion - Arginine B Attempt #15 (Inspired by Omei)] | 52.4 | 123 | 74 | 94.5 | 141
19 | UAAUAAAUAAAUCCAAGGUGAAGGUCAGAUACCAGCCAGAUAACUGGCCCUUGGCAGCUGAAUAAACUUGAGGAUCACCCAGGUA [TheoAS 27 #OpenEnded #MS2Late #AlternativeMS2] | 45.4 | 135 | 55.6 | 63.1 | 548

Row | Sequence | apparent KD of MS2 coat protein (input ligand: arginine 13.2 mM) [nM] | apparent KD of MS2 coat protein [1] [nM] | apparent KD of MS2 coat protein [2] [nM] | apparent KD of MS2 coat protein (input ligand: none) [nM] | apparent KD of MS2 coat protein [3] [nM]
20 | GACAUGAGGAUCACCCAUGUUGACUAUGAAGGAGCGUCGGAAAUGACAGGUAGGUCGCAUAGUCGACCUUGUAUUUUGUGUGUUU [EAA #9] | 12.7 | 17.4 | 11.6 | 10.4 | 12.5
21 | UUAAUCAUGGAUGAAAACAUUUAUGCAGAAGGAGCGUGAUAAAACACAGGUAGGUCGCUGAAGGGAACAUGAGGAUCACCCAUGU [AstrosSSArgA#17] | 35.9 | 74.5 | 41.3 | 65.1 | 69.5
22 | AUAACAUGAGGAUCACCCAUGUAAGCAGAUACCAGCUAGGAAACUAGCCCUUGGCAGCUGCAAUCCUCAUGUAUUGCAGCUGCAA [(M1)-(M2)-(T1)-(T2)-(M)'-(T)'_Design1] | 21.5 | 26.2 | 15.3 | – | –
23 | AAUGGCCGUACCGGAAGGGUGAUCCUCAAACGAGGACCGGUACGGCCGCCACUCGAUAACAUGAGGAUCACCCAUGUAAUACAUA [whbob_X-Trypto_V2.0] | 96.4 | 405 | – | – | 699
24 | GCGGUCGGAGUGCGGCGUGUUCCGCUCCGUCGAGGACCGGUACGGCCGCCACUCGACAUGAGGAUCACCCAUGUCCGACCGCGCG [#1 Exclusion - Tryptophan A Attempt #5 (HarryS)] | 18.4 | 66.5 | 6.86 | 13.4 | 28.8
25 | GUAGCUGAGUGUGAUACCAGAAACGACGUCCUUUAUCAUAACAUGAGGAUCACCCAUGUCUUCCCUUGGCAGCACUUUUCGGUCU [theeternabot_exclusion_MS2_Theo_B_24] | 29.6 | 53.6 | 34.7 | – | –
26 | GGAAGGACAGUUGAUACCAGUUUCAAAGGCGGUAAUCACUACAUGAGGAUCACCCAUGUCAACCCUUGGCAGCAAUAGACCGUGG [theeternabot_exclusion_MS2_Theo_B_6] | 24 | 28.1 | 19.2 | – | –
27 | AGUGUUAUAACUGAUACCAGACUUUUGCUUAUACAUGAGGAUCACCCAUGUAAAAUGGUUGUCCCUUGGCAGCAGAAAAUACACA [JR_SSTheophyB_Sub007] | 81.6 | 104 | 134 | – | –
28 | CGAUAGGGUCAAUACCUAAUCAUAUCUGAAGGAGCGUGGAUAUACACAGGUAGGUCGCAGAAUCACAUGAGGAUCACCCAUGUCC [Same State Arginine A GF13] | 60.2 | 127 | 96.5 | 102 | 154
29 | ACUAGUUGUGCAGAUACCAGACAUGAGGAUCACCCAUGUUUGGGAUCUAAUGAUCAUCCUGUCCCUUGGCAGCUGUACAUCUAGA [Omei Theo B Exc v2] | 51.9 | 234 | 89.9 | – | –
30 | ACAUGAGGAUCACCCAUGUGUGUAAAUCCUCGAGGACCGGUACGGCCGCCACUCGAUCGAGUGUAAGUUGAAUGUAACAUUCAAC [whbob_SS_trypto A_2s8] | 42.6 | 118 | – | – | 108
31 | UCGGGCAGAGCGGCCGCCACUGUUUGGCAUGCGGAUGAAGGAACAUGAGGAUCACCCAUGUAGAUUAGGACCGGGCUAGCGGAGA [sscsmullin] | 12.1 | 42.1 | 16.3 | 17.2 | 18.4
32 | UAUGUCGCCGAAGAUACCAGCCUGGCAAGCAACAUGAGGAUCACCCAUGUAAUUACUUAUGGCCCUUGGCAGCUUCAAAUAGAGC [theeternabot_sameState_MS2_Theo_B_42] | 10.8 | 15.5 | 12.4 | – | –
33 | GGGUAAGAUCCGGAUACCAGCGAACAUGAGGAUCACCCAUGUGACCUAAGAUAGGCUAAACGCCCUUGGCAGCCGAAAUAGCGUU [Same State Theophylline B GF 5] | 24.9 | 43 | 39.5 | 36.4 | 38.2
34 | ACCUACACGGAGACGUGUAGGAGUAAUGAUACCAGCAUGGAGACAUGCCCUUGGCAGCGUUACAUGAGGAUCACCCAUGUACGUU [ETHA #3] | 10.4 | 15.1 | 10.2 | – | –
35 | CGACGAUACCUGGAUACCAGCGACAUGAGGAUCACCCAUGUAUGUGGAUCAGCCAUGAUAUGCCCUUGGCAGCCACCAAAGUCGG [IIIMULLIN] | 17 | 24.1 | 14.3 | – | –
36 | UUGUUGUUUGGAAGGAGCGUGUAUGAUUAAGAACAUGAGGAUCACCCAUGUUGUAGGAUAGCACAGGUAGGUCGCCGGGUGGUGG [11.W] | 18.8 | 22.5 | 14.6 | 14.8 | 23.5
37 | CGGACAUGAGGAUCACCCAUGUACACUGAAGGAGCGUCGAGAACGACAGGUAGGUCGCAGGUUGAGGAUGGUGAUGCUCAGGUAG [Exclusion Arginine A GF 3] | 37.1 | 64.7 | 14.3 | 39.2 | 15.8
38 | AUACAUGAGGAUCACCCAUGUUAUAGUGAAGGAGCGACAUUUAGGUCAGGUAGGUCGCACUAUUGAAUUAUUAUUCUCAGUUCUU [JR_ExcArginiA_Sub019] | 14.2 | 21.8 | 15.2 | 13.2 | 13.7
